Results published in IntAct's records for PubMed 15234987.

B1: Zinc finger protein ZFPM1 (Mus musculus), O35615 (parent)
chain: MSRRKQSNPRQIKRSLRDMEAGEEAKAMDSSPKEQEAPDPEAPAIEEPPSPPREDVSPPAVPAPPESPEDPEDMEGQELEMRPQDEEKEEKEEEAAMASPWSGPEELELALQDGQRCVRARLSLTEGLSWGPFYGSIQTRALSPEREEPGPAVTLMVDESCWLRMLPQVLTEEAANSEIYRKDDALWCRVTKVVPSGGLLYVRLVTEPHGAPRHPVQEPVEPGGLAPVHTDIQLLPQQAGMASILATAVINKDVFPCKDCGIWYRSERNLQAHLLYYCASRQRAGSPVSATEEKPKETYPNERVCPFPQCRKSCPSASSLEIHMRSHSGERPFVCLICLSAFTTKANCERHLKVHTDTLSGVCHNCGFISTTRDILYSHLVTNHMVCQPGSKGEIYSPGAGHPAAKLPPDSLAGFQQHSLMHSPLVPADKAPTPSSGLDSKAEVTNGETRVPPQNGGSSESPAAPRTIKVEAAEEPEATRASGPGEPGPQAPSRTPSPHSPNPVRVKTELSSPTPGSSPGPGELTMAGTLFLPQYVFSPDAGTTTVPTAPQASEILAKMSELVHNRLQQGAGSSGAAGTPTGLFSGTKGATCFECEITFNNINNFYVHKRLYCSGRRAPEDPPTVRRPKAATGPARAPAGAAAEPDPSRSSPGPGPREEEASGTTTPEAEAAGRGSEGSQSPGSSVDDAEDDPSRTLCEACNIRFSRHETYTVHKRYYCASRHDPPPRRPPAPTTAPGPAAPALTAPPVRTRRRRKLYELPAAGAPPPAAGPAPVPVVPSPTAELPSSPRPGSASAGPAPALSPSPVPDGPIDLSKRPRRQSPDAPTALPALADYHECTACRVSFHSLEAYLAHKKYSCPAAPLRTTALCPYCPPNGRVRGDLVEHLRQAHGLQVAKPAASPGAEPRTPAERAPRDSPDGRAPRSPSPAPENTPSDPADQGARTPSKGPPAPAPAPGGGGGHRYCRLCNIRFSSLSTFIAHKKYYCSSHAAEHVK

Variants of: B1
Conditions: with tacc3_mouse Tacc3, Q9JJ11
tacc3_mouse Tacc3, Q9JJ11, sequence (Q9JJ11 whole entry): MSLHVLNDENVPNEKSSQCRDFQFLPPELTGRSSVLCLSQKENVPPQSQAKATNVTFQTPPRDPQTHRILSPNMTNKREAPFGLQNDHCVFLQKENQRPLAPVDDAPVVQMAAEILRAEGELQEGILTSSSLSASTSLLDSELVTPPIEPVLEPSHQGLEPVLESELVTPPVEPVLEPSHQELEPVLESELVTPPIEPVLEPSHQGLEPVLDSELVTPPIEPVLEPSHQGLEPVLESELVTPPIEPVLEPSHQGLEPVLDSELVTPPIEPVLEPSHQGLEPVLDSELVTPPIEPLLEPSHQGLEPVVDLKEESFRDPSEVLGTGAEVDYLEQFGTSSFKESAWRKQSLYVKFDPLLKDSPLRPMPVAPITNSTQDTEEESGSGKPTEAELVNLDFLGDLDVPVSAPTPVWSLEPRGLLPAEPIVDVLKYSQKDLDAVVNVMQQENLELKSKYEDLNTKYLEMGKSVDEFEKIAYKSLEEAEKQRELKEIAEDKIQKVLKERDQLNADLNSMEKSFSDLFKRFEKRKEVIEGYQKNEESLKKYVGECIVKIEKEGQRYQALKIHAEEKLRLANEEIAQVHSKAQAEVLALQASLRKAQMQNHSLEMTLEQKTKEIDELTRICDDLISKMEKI

Variant | effect of a mutation on the interaction
N347A | decreasing interaction
T343A | decreasing interaction
T344A | decreasing interaction
R350A | decreasing interaction
V354A | decreasing interaction
